Tested on: Escherichia coli TOP10
Assay: shrunken log2 fold change of peptide-encoding DNA abundance (4.5 h post-induction vs induction); higher = less antimicrobial activity (less host growth inhibition)
Details: time post-induction: 4.5 h; library: site-saturation at positions 5, 18, 19, 20
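Note: peptides expressed intracellularly from a pBAD plasmid library in pooled LB shake-flask culture, induced with 0.3% L-arabinose, DNA abundance read by NGS, three biological replicates, DESeq2 with apeglm shrinkage.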

Sequence	shrunken log2 fold change
RRIRKRPPRLPRPRPRPEFMPRP	0.541
RRIRKRPPRLPRPRPRPEFRPRP	0.129
RRIRKRPPRLPRPRPRPEFWPRP	0.807
RRIRKRPPRLPRPRPRPEGAPRP	1.54
RRIRKRPPRLPRPRPRPEGTPRP	0.0154
RRIRKRPPRLPRPRPRPEHNPRP	0.368
RRIRKRPPRLPRPRPRPEISPRP	-0.0587
RRIRKRPPRLPRPRPRPEITPRP	2.03
RRIRKRPPRLPRPRPRPEIVPRP	1.08
RRIRKRPPRLPRPRPRPEKIPRP	0.185
RRIRKRPPRLPRPRPRPELVPRP	0.133
RRIRKRPPRLPRPRPRPEMLPRP	2
RRIRKRPPRLPRPRPRPEMQPRP	1.92
RRIRKRPPRLPRPRPRPENCPRP	0.654
RRIRKRPPRLPRPRPRPENTPRP	0.44
RRIRKRPPRLPRPRPRPEQPPRP	0.328
RRIRKRPPRLPRPRPRPERIPRP	0.00934
RRIRKRPPRLPRPRPRPERRPRP	0.337
RRIRKRPPRLPRPRPRPESVPRP	0.234
RRIRKRPPRLPRPRPRPESWPRP	1.02
RRIRKRPPRLPRPRPRPETEPRP	0.0991
RRIRKRPPRLPRPRPRPEVCPRP	0.0227
RRIRKRPPRLPRPRPRPEVLPRP	1.57
RRIRKRPPRLPRPRPRPEVQPRP	3.94
RRIRKRPPRLPRPRPRPEWVPRP	0.478

Sequence	shrunken log2 fold change
RRIRKRPPRLPRPRPRPFAHPRP	-0.00992
RRIRKRPPRLPRPRPRPFALPRP	0.186
RRIRKRPPRLPRPRPRPFANPRP	-0.0377
RRIRKRPPRLPRPRPRPFAYPRP	0.0165
RRIRKRPPRLPRPRPRPFCGPRP	0.345
RRIRKRPPRLPRPRPRPFCPPRP	0.0562
RRIRKRPPRLPRPRPRPFDQPRP	-0.0318
RRIRKRPPRLPRPRPRPFFAPRP	0.645
RRIRKRPPRLPRPRPRPFFQPRP	0.346
RRIRKRPPRLPRPRPRPFGPPRP	0.325
RRIRKRPPRLPRPRPRPFHFPRP	-0.0346
RRIRKRPPRLPRPRPRPFHKPRP	-0.00277
RRIRKRPPRLPRPRPRPFHRPRP	-0.0303
RRIRKRPPRLPRPRPRPFIMPRP	-0.191
RRIRKRPPRLPRPRPRPFKFPRP	-0.0557
RRIRKRPPRLPRPRPRPFKHPRP	-0.0024
RRIRKRPPRLPRPRPRPFLLPRP	-0.399
RRIRKRPPRLPRPRPRPFLWPRP	-0.119
RRIRKRPPRLPRPRPRPFLYPRP	-0.436
RRIRKRPPRLPRPRPRPFMCPRP	0.0653
RRIRKRPPRLPRPRPRPFMKPRP	-0.157
RRIRKRPPRLPRPRPRPFMQPRP	-0.0285
RRIRKRPPRLPRPRPRPFPRPRP	0.297
RRIRKRPPRLPRPRPRPFQCPRP	-0.01
RRIRKRPPRLPRPRPRPFQTPRP	0.12

Sequence	shrunken log2 fold change
RRIRKRPPRLPRPRPRPFRCPRP	-0.142
RRIRKRPPRLPRPRPRPFRNPRP	-0.309
RRIRKRPPRLPRPRPRPFRQPRP	-0.0695
RRIRKRPPRLPRPRPRPFRVPRP	-0.035
RRIRKRPPRLPRPRPRPFSHPRP	-0.131
RRIRKRPPRLPRPRPRPFSYPRP	-0.324
RRIRKRPPRLPRPRPRPFTFPRP	-0.325
RRIRKRPPRLPRPRPRPFTPPRP	0.0993
RRIRKRPPRLPRPRPRPFTTPRP	-0.243
RRIRKRPPRLPRPRPRPFVIPRP	-0.363
RRIRKRPPRLPRPRPRPFVPPRP	-0.297
RRIRKRPPRLPRPRPRPFVSPRP	-0.176
RRIRKRPPRLPRPRPRPFYCPRP	-0.0322
RRIRKRPPRLPRPRPRPGANPRP	0.179
RRIRKRPPRLPRPRPRPGAQPRP	0.496
RRIRKRPPRLPRPRPRPGDDPRP	0.758
RRIRKRPPRLPRPRPRPGDPPRP	1.21
RRIRKRPPRLPRPRPRPGEEPRP	0.108
RRIRKRPPRLPRPRPRPGGGPRP	0.976
RRIRKRPPRLPRPRPRPGGMPRP	0.633
RRIRKRPPRLPRPRPRPGHGPRP	0.16
RRIRKRPPRLPRPRPRPGHPPRP	0.943
RRIRKRPPRLPRPRPRPGISPRP	0.249
RRIRKRPPRLPRPRPRPGKFPRP	-0.174
RRIRKRPPRLPRPRPRPGLCPRP	0.168

Sequence	shrunken log2 fold change
RRIRKRPPRLPRPRPRPGLYPRP	0.324
RRIRKRPPRLPRPRPRPGPGPRP	0.493
RRIRKRPPRLPRPRPRPGPIPRP	0.204
RRIRKRPPRLPRPRPRPGQEPRP	0.053
RRIRKRPPRLPRPRPRPGQNPRP	0.0264
RRIRKRPPRLPRPRPRPGRFPRP	0.227
RRIRKRPPRLPRPRPRPGRSPRP	0.256
RRIRKRPPRLPRPRPRPGRYPRP	0.426
RRIRKRPPRLPRPRPRPGSEPRP	0.66
RRIRKRPPRLPRPRPRPGSQPRP	0.359
RRIRKRPPRLPRPRPRPGTLPRP	0.0624
RRIRKRPPRLPRPRPRPGVKPRP	0.0127
RRIRKRPPRLPRPRPRPGWGPRP	0.432
RRIRKRPPRLPRPRPRPGYPPRP	0.0931
RRIRKRPPRLPRPRPRPHAGPRP	0.143
RRIRKRPPRLPRPRPRPHAMPRP	-0.0147
RRIRKRPPRLPRPRPRPHANPRP	0.18
RRIRKRPPRLPRPRPRPHDFPRP	-0.0488
RRIRKRPPRLPRPRPRPHDGPRP	0.0431
RRIRKRPPRLPRPRPRPHEDPRP	0.139
RRIRKRPPRLPRPRPRPHETPRP	-0.0327
RRIRKRPPRLPRPRPRPHFCPRP	-0.167
RRIRKRPPRLPRPRPRPHFNPRP	-0.0789
RRIRKRPPRLPRPRPRPHHDPRP	-0.121
RRIRKRPPRLPRPRPRPHICPRP	0.00561

Sequence	shrunken log2 fold change
RRIRKRPPRLPRPRPRPHIHPRP	-0.239
RRIRKRPPRLPRPRPRPHKDPRP	-0.113
RRIRKRPPRLPRPRPRPHKNPRP	0.207
RRIRKRPPRLPRPRPRPHLEPRP	-0.0191
RRIRKRPPRLPRPRPRPHLFPRP	0.205
RRIRKRPPRLPRPRPRPHMCPRP	-0.066
RRIRKRPPRLPRPRPRPHNPPRP	-0.0541
RRIRKRPPRLPRPRPRPHPNPRP	0.135
RRIRKRPPRLPRPRPRPHPQPRP	0.223
RRIRKRPPRLPRPRPRPHPWPRP	0.353
RRIRKRPPRLPRPRPRPHQCPRP	-0.0321
RRIRKRPPRLPRPRPRPHQGPRP	0.0968
RRIRKRPPRLPRPRPRPHRTPRP	-0.19
RRIRKRPPRLPRPRPRPHSMPRP	0.0496
RRIRKRPPRLPRPRPRPHTTPRP	0.0925
RRIRKRPPRLPRPRPRPHWEPRP	-0.102
RRIRKRPPRLPRPRPRPHYEPRP	-0.0316
RRIRKRPPRLPRPRPRPHYKPRP	-0.446
RRIRKRPPRLPRPRPRPIAHPRP	0.143
RRIRKRPPRLPRPRPRPICHPRP	0.132
RRIRKRPPRLPRPRPRPIDAPRP	0.318
RRIRKRPPRLPRPRPRPIDIPRP	0.00848
RRIRKRPPRLPRPRPRPIFLPRP	0.0688
RRIRKRPPRLPRPRPRPIIPPRP	0.152
RRIRKRPPRLPRPRPRPIKMPRP	0.0326

Sequence	shrunken log2 fold change
RRIRKRPPRLPRPRPRPIMCPRP	-0.0176
RRIRKRPPRLPRPRPRPIMWPRP	0.0599
RRIRKRPPRLPRPRPRPINTPRP	-0.0237
RRIRKRPPRLPRPRPRPIPWPRP	0.466
RRIRKRPPRLPRPRPRPIQWPRP	-0.00149
RRIRKRPPRLPRPRPRPIRCPRP	0.0497
RRIRKRPPRLPRPRPRPITCPRP	0.0162
RRIRKRPPRLPRPRPRPIYPPRP	-0.0542
RRIRKRPPRLPRPRPRPIYVPRP	0.0461
RRIRKRPPRLPRPRPRPKAQPRP	0.313
RRIRKRPPRLPRPRPRPKCMPRP	0.15
RRIRKRPPRLPRPRPRPKEFPRP	0.232
RRIRKRPPRLPRPRPRPKFAPRP	0.764
RRIRKRPPRLPRPRPRPKFIPRP	-1.04
RRIRKRPPRLPRPRPRPKFRPRP	0.00803
RRIRKRPPRLPRPRPRPKGPPRP	0.828
RRIRKRPPRLPRPRPRPKIRPRP	0.246
RRIRKRPPRLPRPRPRPKMIPRP	-0.0764
RRIRKRPPRLPRPRPRPKMTPRP	0.187
RRIRKRPPRLPRPRPRPKMWPRP	0.363
RRIRKRPPRLPRPRPRPKSNPRP	0.112
RRIRKRPPRLPRPRPRPKTIPRP	0.0745
RRIRKRPPRLPRPRPRPKVAPRP	1.23
RRIRKRPPRLPRPRPRPKVEPRP	0.0183
RRIRKRPPRLPRPRPRPKVQPRP	0.092

Reference: the supplement of paper PMC9112550, “Optimization of the antimicrobial peptide Bac7 by deep mutational scanning” (BMC Biology, 2022)
